Assay results as given in publication PMC4359366, “Lis1 regulates dynein by sterically blocking its mechanochemical cycle” (eLife, 2014).

Tests used:
[1] = target: GST-dynein_(331kDa) (S. cerevisiae); assay: SEC; 400–800 nM dynein and 475–800 nM Lis1 mixed for 10 min at 4°C; Superose 6 PC 3.2/30; 50 mM Tris–HCl pH 8.0, 150 mM potassium acetate, 2 mM magnesium acetate, 1 mM EGTA, 1 mM DTT; fractions on SDS-PAGE with SYPRO Red, bands quantified in ImageJ
[2] = target: T1, short linker dynein, DYN1_(314kDa), without GFP (S. cerevisiae, UniProt P36022 1365-4092); assay: cryo-EM structure; cryo-negative stain EM, single-particle 3D reconstruction; monomeric dynein (80–120 nM) pre-incubated for 10 min with Lis1 dimer at a 1.5-fold excess (120–180 nM); no nucleotide (apyrase 0.14 U/ml, 15 min); 2% uranyl formate; conditions: both partners purified
T1 construct: ZZ tag probably cut off by Tev; also called short linker construct
T1 sequence (P36022 1365-4092): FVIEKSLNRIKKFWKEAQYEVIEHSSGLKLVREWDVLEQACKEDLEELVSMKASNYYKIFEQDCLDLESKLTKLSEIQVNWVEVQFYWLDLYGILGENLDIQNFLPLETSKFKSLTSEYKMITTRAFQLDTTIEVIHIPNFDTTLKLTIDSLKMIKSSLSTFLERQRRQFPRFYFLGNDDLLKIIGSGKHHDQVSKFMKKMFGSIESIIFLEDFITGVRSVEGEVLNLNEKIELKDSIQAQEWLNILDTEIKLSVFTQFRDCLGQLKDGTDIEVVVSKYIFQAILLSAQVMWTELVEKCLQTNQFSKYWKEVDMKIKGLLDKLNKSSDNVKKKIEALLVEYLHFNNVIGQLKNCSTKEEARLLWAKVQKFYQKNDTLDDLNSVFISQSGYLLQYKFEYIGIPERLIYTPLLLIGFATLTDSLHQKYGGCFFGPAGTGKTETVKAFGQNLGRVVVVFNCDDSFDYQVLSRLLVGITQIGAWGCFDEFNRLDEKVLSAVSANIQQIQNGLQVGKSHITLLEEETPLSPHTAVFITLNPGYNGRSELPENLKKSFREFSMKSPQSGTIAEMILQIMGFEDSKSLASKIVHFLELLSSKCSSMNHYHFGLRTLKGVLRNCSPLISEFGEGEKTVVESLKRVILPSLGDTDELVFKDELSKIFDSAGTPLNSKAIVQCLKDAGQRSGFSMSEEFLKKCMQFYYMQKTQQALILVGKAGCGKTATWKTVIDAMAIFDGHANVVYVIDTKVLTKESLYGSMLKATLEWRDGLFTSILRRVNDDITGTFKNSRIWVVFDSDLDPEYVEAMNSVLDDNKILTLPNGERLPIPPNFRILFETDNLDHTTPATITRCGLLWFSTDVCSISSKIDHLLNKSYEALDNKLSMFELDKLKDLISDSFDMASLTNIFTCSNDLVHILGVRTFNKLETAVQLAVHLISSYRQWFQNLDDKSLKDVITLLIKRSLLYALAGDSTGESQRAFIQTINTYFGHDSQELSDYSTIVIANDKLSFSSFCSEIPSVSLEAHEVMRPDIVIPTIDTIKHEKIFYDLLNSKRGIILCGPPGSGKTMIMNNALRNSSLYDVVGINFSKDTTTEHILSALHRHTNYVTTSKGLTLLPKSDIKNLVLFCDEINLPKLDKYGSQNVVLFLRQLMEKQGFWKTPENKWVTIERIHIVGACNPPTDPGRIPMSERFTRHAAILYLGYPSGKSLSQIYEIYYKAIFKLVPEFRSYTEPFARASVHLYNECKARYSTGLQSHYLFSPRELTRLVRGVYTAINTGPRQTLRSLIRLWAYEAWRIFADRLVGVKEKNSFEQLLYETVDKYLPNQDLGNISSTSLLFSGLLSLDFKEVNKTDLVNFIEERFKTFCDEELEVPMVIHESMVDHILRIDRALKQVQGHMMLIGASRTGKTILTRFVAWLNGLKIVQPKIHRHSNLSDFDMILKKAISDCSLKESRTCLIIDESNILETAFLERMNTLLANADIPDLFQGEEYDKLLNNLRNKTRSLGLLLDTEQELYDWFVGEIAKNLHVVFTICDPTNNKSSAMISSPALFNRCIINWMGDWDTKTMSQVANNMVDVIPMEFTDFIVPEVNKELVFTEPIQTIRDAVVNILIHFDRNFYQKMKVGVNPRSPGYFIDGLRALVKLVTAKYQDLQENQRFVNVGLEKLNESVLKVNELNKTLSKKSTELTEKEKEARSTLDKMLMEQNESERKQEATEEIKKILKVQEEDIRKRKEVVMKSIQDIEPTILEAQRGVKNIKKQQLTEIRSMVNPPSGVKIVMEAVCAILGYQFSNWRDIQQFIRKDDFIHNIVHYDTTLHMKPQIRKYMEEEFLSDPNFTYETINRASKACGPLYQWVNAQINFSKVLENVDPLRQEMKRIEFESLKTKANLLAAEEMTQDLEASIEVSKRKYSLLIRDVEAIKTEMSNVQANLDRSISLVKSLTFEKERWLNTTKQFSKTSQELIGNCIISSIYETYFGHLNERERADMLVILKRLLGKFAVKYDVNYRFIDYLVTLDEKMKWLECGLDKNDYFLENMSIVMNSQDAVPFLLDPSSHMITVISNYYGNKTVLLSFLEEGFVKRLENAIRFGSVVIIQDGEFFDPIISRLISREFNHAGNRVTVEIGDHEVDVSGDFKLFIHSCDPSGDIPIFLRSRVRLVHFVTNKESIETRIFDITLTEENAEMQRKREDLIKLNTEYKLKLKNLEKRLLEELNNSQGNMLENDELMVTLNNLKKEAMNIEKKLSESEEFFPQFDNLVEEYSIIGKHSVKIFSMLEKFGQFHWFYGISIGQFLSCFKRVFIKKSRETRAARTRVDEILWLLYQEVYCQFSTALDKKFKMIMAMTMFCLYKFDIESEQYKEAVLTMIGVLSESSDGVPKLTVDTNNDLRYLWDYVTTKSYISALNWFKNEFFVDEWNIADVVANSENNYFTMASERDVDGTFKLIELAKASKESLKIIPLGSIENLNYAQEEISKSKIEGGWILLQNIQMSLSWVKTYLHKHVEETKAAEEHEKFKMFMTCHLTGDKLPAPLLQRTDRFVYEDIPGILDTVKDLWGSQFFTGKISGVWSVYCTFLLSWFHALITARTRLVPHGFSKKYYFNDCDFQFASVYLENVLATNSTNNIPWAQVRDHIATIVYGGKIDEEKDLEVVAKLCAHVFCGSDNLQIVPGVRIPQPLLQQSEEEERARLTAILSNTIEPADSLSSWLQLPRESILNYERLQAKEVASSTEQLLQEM

[3] = target: monomeric dynein motor domain, dynein_(331kDa) without tags on the linker (S. cerevisiae); assay: as above
[4] = target: T2, short linker dynein, GFP-3xHA-DYN1_(314kDa)-gs-DHA, monomeric (S. cerevisiae, UniProt P36022 1365-4092); assay: SEC; 400–800 nM dynein and 475–800 nM Lis1 mixed for 10 min at 4°C; Superose 6 PC 3.2/30; 50 mM Tris–HCl pH 8.0, 150 mM potassium acetate, 2 mM magnesium acetate, 1 mM EGTA, 1 mM DTT; fractions on SDS-PAGE with SYPRO Red, bands quantified in ImageJ; conditions: both partners purified
T2 construct: ZZ tag probably cut off by Tev; also called monomeric short linker dynein; short linker construct; not shown: GFP, N-terminal, kept; 3xHA, N-terminal, kept
T2 sequence (P36022 1365-4092): as above

[5] = target: T3, short linker dynein DYN1_(314kDa) K3438E, R3445E, F3446D (AAA5 linker-docking mutant), monomeric (S. cerevisiae, UniProt P36022 1365-4092, K3438E | R3445E | F3446D); assay: as above; conditions: both partners purified
T3 construct: Cytoplasmic dynein heavy chain (DYN1), S. cerevisiae, 314 kDa motor construct DYN1_(314kDa) (linker truncated at residue 1365) with the AAA5 mutations; also called short linker dynein with AAA5 mutations; GFP-3xHA-DYN1_(314kDa)^K3438E,R3445E,F3446D-gs-DHA
T3 sequence (P36022 1365-4092 K3438E/R3445E/F3446D): as the sequence (P36022 1365-4092) above, with K2074E, R2081E, F2082D counted along it

| GST-dynein (331kDa) share of the dynein:Lis1 band ratio in the SEC complex peak [1] | Lis1 share of the dynein:Lis1 band ratio in the SEC complex peak [1] | binding result [2] | stoichiometry N (Lis1 propeller per dynein motor domain) [3] | binding result [4] | binding result [5] | Binder |
| --- | --- | --- | --- | --- | --- | --- |
| 0.88 | 0.12 |  |  |  |  | Lis1^R301A (natural protein) MTNWQQQLPLTDTQKNELDKSVLRYLNWNYKQTVRHEHAQDYESVRHAIVTLSGFLLQESVDRQEFISNNDTSNESMVDIDELLLPKKWNSIVRLQKKIIELEQNTETLVSQIKDLNTQVSELAQFKPTTSNGTSAHNVLKWIPRNLPSCLINVESSVTSVKLHPNLPIVFVATDHGKLYAFDLFNYTIPLASLQSHTKAITSMDVLFTNYTNSSKKNYLVIVTASKDLQIHVFKWVSEECKFQQIRSLLGHEHIVSAVKIWQKNNDVHIASCSRDQTVKIWDFHNGWSLKTFQPHSQWVASIDVLGDYIISGSHDTTLRLTHWPSGNGLSVGTGHEFPIEKVKFIHFIEDSPEIRFRTPSTDRYKNWGMQYCVSASRDRTIKIWEIPLPTLMAHRAPIPNPTDSNFRCVLTLKGHLSWVRDISIRGQYLFSCADDKSVRCWDLNTGQCLHVWEKLHTGFVNCLDLDVDFDSNVTPRQMMVTGGLDCKSNVFMR |
| 0.85 | 0.15 |  |  |  |  | Lis1^K437A (natural protein) MTNWQQQLPLTDTQKNELDKSVLRYLNWNYKQTVRHEHAQDYESVRHAIVTLSGFLLQESVDRQEFISNNDTSNESMVDIDELLLPKKWNSIVRLQKKIIELEQNTETLVSQIKDLNTQVSELAQFKPTTSNGTSAHNVLKWIPRNLPSCLINVESSVTSVKLHPNLPIVFVATDHGKLYAFDLFNYTIPLASLQSHTKAITSMDVLFTNYTNSSKKNYLVIVTASKDLQIHVFKWVSEECKFQQIRSLLGHEHIVSAVKIWQKNNDVHIASCSRDQTVKIWDFHNGWSLKTFQPHSQWVRSIDVLGDYIISGSHDTTLRLTHWPSGNGLSVGTGHEFPIEKVKFIHFIEDSPEIRFRTPSTDRYKNWGMQYCVSASRDRTIKIWEIPLPTLMAHRAPIPNPTDSNFRCVLTLKGHLSWVRDISIRGQYLFSCADDASVRCWDLNTGQCLHVWEKLHTGFVNCLDLDVDFDSNVTPRQMMVTGGLDCKSNVFMR |
| 0.82 | 0.18 | binds | 1 | binds | binds | Lis1 (Pac1), wild type, dimer (natural protein, S. cerevisiae, UniProt P39946 1-494, looked up, Lis1 ortholog Pac1 (PAC1), S. cerevisiae; genomic PAC1 copy with ZZ-Tev in front; A Tev site follows the ZZ tag and a TEV buffer is named for the Lis1 purification, so the ZZ tag was probably cut off; also called WT Lis1; wild-type Lis1) MTNWQQQLPLTDTQKNELDKSVLRYLNWNYKQTVRHEHAQDYESVRHAIVTLSGFLLQESVDRQEFISNNDTSNESMVDIDELLLPKKWNSIVRLQKKIIELEQNTETLVSQIKDLNTQVSELAQFKPTTSNGTSAHNVLKWIPRNLPSCLINVESSVTSVKLHPNLPIVFVATDHGKLYAFDLFNYTIPLASLQSHTKAITSMDVLFTNYTNSSKKNYLVIVTASKDLQIHVFKWVSEECKFQQIRSLLGHEHIVSAVKIWQKNNDVHIASCSRDQTVKIWDFHNGWSLKTFQPHSQWVRSIDVLGDYIISGSHDTTLRLTHWPSGNGLSVGTGHEFPIEKVKFIHFIEDSPEIRFRTPSTDRYKNWGMQYCVSASRDRTIKIWEIPLPTLMAHRAPIPNPTDSNFRCVLTLKGHLSWVRDISIRGQYLFSCADDKSVRCWDLNTGQCLHVWEKLHTGFVNCLDLDVDFDSNVTPRQMMVTGGLDCKSNVFMR |
| 0.85 | 0.15 |  |  |  |  | Lis1^R275A (natural protein) MTNWQQQLPLTDTQKNELDKSVLRYLNWNYKQTVRHEHAQDYESVRHAIVTLSGFLLQESVDRQEFISNNDTSNESMVDIDELLLPKKWNSIVRLQKKIIELEQNTETLVSQIKDLNTQVSELAQFKPTTSNGTSAHNVLKWIPRNLPSCLINVESSVTSVKLHPNLPIVFVATDHGKLYAFDLFNYTIPLASLQSHTKAITSMDVLFTNYTNSSKKNYLVIVTASKDLQIHVFKWVSEECKFQQIRSLLGHEHIVSAVKIWQKNNDVHIASCSADQTVKIWDFHNGWSLKTFQPHSQWVRSIDVLGDYIISGSHDTTLRLTHWPSGNGLSVGTGHEFPIEKVKFIHFIEDSPEIRFRTPSTDRYKNWGMQYCVSASRDRTIKIWEIPLPTLMAHRAPIPNPTDSNFRCVLTLKGHLSWVRDISIRGQYLFSCADDKSVRCWDLNTGQCLHVWEKLHTGFVNCLDLDVDFDSNVTPRQMMVTGGLDCKSNVFMR |
